This assay concerns the target human HER2 (ErbB2) receptor (human) (UniProt P04626). In words: cell-based or functional assay.

Experimental findings from patent US20050238649A1 are described below.

With 4D5 Fab-MC-vc-PAB-MMAF, 1.5 MMAF/Ab, the IC50, cell proliferation assay (CellTiter-Glo), BT474 cells came out at 0.04 µg ADC/ml and the IC50, cell proliferation assay (CellTiter-Glo), SK-BR-3 cells is 0.02 µg ADC/ml. The substance murine monoclonal antibody 4D5 showed a maximum inhibition of cell proliferation of SK-BR-3 cells of 66%.
